Drawing on article PMC2909360, this text covers IC50 of inhibition of enzyme activity (fluorogenic substrate) and stoichiometry N for 2 substances.

As a reminder, the stoichiometry N is a count of units in the complex or per binding partner.

The target in assay [1] is purified bovine cathepsin B (bovine).
In assay [2] the target is purified bovine cathepsin C (bovine).
Assay [3] has as its target T1, purified human cathepsin H (human).
T1 sequence (P09668 116-335, looked up): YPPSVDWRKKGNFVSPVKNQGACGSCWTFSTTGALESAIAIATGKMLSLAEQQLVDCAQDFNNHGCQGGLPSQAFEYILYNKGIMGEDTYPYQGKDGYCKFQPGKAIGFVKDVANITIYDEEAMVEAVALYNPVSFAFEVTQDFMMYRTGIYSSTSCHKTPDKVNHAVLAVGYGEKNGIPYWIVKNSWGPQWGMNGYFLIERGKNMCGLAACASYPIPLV

For the next assay, the target named is T2, purified papain (UniProt P00784).
T2 sequence: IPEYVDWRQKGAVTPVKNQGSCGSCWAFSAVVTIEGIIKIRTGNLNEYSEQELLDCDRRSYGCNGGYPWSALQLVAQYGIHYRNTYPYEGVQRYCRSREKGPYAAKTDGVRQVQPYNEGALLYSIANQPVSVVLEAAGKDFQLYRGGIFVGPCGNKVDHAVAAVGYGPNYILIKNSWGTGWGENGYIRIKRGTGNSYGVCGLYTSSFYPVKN

The target of assay [4] is recombinant human cathepsin L (human) (UniProt P07711).
recombinant human cathepsin L (human), sequence (P07711 18-333): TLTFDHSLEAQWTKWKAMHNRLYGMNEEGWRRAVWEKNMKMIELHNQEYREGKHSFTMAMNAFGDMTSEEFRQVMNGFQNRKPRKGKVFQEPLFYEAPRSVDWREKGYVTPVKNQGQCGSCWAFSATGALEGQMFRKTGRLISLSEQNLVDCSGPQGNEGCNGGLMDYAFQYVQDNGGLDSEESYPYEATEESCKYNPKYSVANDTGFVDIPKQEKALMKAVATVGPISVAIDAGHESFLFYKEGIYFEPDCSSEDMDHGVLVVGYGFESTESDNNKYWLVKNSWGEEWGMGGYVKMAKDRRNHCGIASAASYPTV
The target in assay [5] is recombinant human cathepsin S (human) (UniProt P25774).
recombinant human cathepsin S (human), sequence (P25774 17-331): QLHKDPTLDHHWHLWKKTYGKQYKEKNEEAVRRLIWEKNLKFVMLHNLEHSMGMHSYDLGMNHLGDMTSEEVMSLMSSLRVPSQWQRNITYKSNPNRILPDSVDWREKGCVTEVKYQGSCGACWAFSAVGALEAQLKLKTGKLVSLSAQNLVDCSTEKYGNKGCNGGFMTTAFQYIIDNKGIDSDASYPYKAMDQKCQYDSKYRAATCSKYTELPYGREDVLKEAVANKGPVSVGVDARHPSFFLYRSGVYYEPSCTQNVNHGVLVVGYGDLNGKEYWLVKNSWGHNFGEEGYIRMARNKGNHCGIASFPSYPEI
For assay [6], the target named is sialostatin L (Ixodes scapularis) (UniProt Q8MVB6). Nature of the assay: crystal structure.

purified chicken egg white cystatin, sequence (P01038 24-139): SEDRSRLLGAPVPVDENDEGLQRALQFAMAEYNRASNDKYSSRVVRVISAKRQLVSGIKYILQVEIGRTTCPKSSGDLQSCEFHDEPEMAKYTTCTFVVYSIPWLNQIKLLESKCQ
purified bovine cathepsin C (bovine), sequence (Q3ZCJ8 25-463): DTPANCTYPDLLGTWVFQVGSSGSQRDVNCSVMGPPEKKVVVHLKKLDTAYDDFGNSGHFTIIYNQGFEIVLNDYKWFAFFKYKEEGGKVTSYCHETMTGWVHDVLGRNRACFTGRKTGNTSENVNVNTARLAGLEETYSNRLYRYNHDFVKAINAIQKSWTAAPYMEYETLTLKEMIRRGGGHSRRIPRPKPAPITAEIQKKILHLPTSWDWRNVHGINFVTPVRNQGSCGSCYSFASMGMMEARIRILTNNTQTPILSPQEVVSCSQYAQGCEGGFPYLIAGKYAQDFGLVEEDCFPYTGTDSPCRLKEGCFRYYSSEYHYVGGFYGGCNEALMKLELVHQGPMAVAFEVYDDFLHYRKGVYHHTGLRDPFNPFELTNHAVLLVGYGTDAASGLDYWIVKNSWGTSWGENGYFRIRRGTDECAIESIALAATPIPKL

On to “purified chicken egg white cystatin (from UniProt P01038 24-139) (natural protein)”, for which the IC50 of inhibition of enzyme activity (fluorogenic substrate) amounted to 800 nM in assay [1]; 3.1 nM in assay [2]; 39 nM in assay [3]; 4.4 nM with purified papain; 2.9 nM in assay [4]; 3.2 nM in assay [5].
“sialostatin L (from UniProt Q8MVB6 20-133) (natural protein)” returned a stoichiometry N in assay [6] of 2.
